Reference: US20090010911A1, “METHODS AND COMPOSITIONS FOR AFFECTING CYCLOPHILIN A REGULATION OF KINASES IN MODULATING CELLULAR ACTIVITIES” (IOWA STATE UNIVERSITY RESEARCH FOUNDATION, INC., priority 2007, published 2009)

B1: Itk SH2 domain: isolated exogenous SH2 domain of Itk, purified from bacteria (protein)
chain: EWYNKSISRDKAEKLLLDTGKEGAFMVRDSRTPGTYTVSVFTKAIISENPCIKHYHIKETNDSPKRYYVAEKYVFDSIPLLIQYHQYNGGGLVTRLRYPVCSWRQKA
B2: PLCγ1 SH2C domain: isolated carboxy-terminal SH2 domain of PLCγ1 (protein)
chain: QTNAHESKEWYHASLTRAQAEHMLMRVPRDGAFLVRKRNEPNSYAISFRAEGKIKHCRVQQEGQTVMLGNSEFDSLVDLISYYEKHPLYRKMKLRYPI

Target: T1, Itk full-length enzyme (Mus musculus, UniProt Q03526)
T1 construct: Full-length Itk, Btk and Tec and the Itk kinase domain fragments were PCR amplified; made in house; host or cells: Sf9 insect cells (baculovirus), co-infected 1:1 with Lck baculovirus
T1 sequence (Q03526 1-625): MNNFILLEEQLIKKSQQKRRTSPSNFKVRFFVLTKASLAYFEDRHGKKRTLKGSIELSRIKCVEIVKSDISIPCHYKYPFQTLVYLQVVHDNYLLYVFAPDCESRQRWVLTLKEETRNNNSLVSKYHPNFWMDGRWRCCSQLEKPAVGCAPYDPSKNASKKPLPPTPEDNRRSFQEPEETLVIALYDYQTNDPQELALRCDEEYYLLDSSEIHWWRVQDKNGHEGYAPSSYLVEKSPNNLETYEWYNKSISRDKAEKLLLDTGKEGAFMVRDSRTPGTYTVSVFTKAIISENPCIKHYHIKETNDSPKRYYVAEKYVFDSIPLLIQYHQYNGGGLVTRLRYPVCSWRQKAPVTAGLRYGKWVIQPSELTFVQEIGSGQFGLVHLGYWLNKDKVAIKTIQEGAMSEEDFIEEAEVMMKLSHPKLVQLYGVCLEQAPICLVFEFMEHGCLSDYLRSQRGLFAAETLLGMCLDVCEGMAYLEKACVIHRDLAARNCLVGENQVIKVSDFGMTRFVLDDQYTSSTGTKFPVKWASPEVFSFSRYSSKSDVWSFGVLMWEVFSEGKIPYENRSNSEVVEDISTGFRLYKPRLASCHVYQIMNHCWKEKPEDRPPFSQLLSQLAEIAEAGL
Assay: In vitro kinase assay with western blotting, phosphorylation of SH2 domain-containing substrates with added free SH2 domain or CypA
Format: biochemical
Procedure: Substrate used in each experiment is indicated above each set of blots. 4(a) (left) Itk 32 substrate was incubated with Itk full-length enzyme as before (lane 1), or with Itk 32 domain:free Itk SH2 domain in ratios of 1:10, 1:25 or 1:50 (lanes 2-4, respectively) or equivalent ratios of PI3K N-terminal SH2 domain (lanes 5-7) and subjected to an in vitro kinase assay. […] Coomassie stain and an anti-FLAG blot (bottom panels) show protein levels. (right) The PLCγ1 SH2 domain competes with the PLCγ1 substrate in a similar manner. Lane 1 contains only Itk enzyme and PLCγ1 SH2C-Y783-substrate without additional free SH2 domain. Ratios of free SH2 domain to substrate are 1:5, 1:10 or 1:50 in lanes 2-4, respectively and equivalent ratios of PI3K SH2 domain are used in lanes 5-7. Coomassie stain of the gel and an anti-Itk blot (bottom panels) show protein levels. 4(b) Same experiment as shown in (a) using the Grb2 SH2 domain as a control. (left) Itk 32 substrate was incubated with Itk full-length enzyme (lane 1), or with Itk 32 domain:free Itk SH2 domain in ratios of 1:10 and 1:25 (lanes 2 & 3) or equivalent ratios of Grb2 SH2 domain (lanes 4 & 5) and subjected to an in vitro kinase assay. (right) Identical experiment following PLCγ1 substrate phosphorylation in the presence of the PLCγ1 and Grb2 SH2 domains. Lane 1 is PLCγ1 substrate alone; lanes 2 & 3 are PLCγ1 substrate:PLCγ1 SH2 domain in a 1:10 and 1:25 ratio, respectively and lanes 4 & 5 are identical ratios of PLCγ1 substrate:Grb2 SH2 domain. 4(c) The Itk SH2 domain competes with autophosphorylation of Y180 within full length Itk. For lanes 2-4, the amount of free SH2 domain is the same as used in panel (a), lanes 2-4. No exogenous SH2 domain has been added in lane 1 and full length Itk is both the enzyme and the substrate. Coomassie stain and an anti-FLAG blot (bottom panels) show protein levels. […] Initial velocities are shown for phosphorylation of peptide B (sequence shown in FIG. 5a) by full length Itk in the absence (column 1) and presence (column 2 and 3) of Itk SH2 domain. […]

autophosphorylation of Tyr 180 within full length Itk upon addition of free SH2 domain (full length Itk is both enzyme and substrate)	inhibition of Itk 32 substrate phosphorylation (Y180) by free SH2 domain (substrate:free SH2 domain ratios 1:10, 1:25, 1:50)	inhibition of PLCγ1 SH2C-Y783- substrate phosphorylation by free SH2 domain (substrate:free SH2 domain ratios 1:5 to 1:50)	Molecule
greatly diminished	inhibits substrate phosphorylation	–	B1
–	–	inhibits substrate phosphorylation	B2
